Earlier results as cited in publication PMC4828448.

Molecular target: nisin (Lactococcus lactis) (UniProt P13068)
Sequence of UniProt P13068 (P13068 24-57): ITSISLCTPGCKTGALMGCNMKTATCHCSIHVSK

For NisI (from UniProt P42708), the Kd is listed as 1000 nM.
